Starred links: 1 amine or outer side, 2 acyl side, 3 side chain; linkers in the order of their positions; H or OH if unused. Non-standard residues stand in square brackets, D forms with d. Groups on a side chain read outwards from the residue. No end group written: not given here. *: point of attachment. C20 diacid = O=C(O)CCCCCCCCCCCCCCCCCCC(=O)*; γGlu = O=C(O)[C@H](CCC(=O)[*:2])N[*:1]; Nle = CCCC[C@H](N)C(=O)O; Nva = CCC[C@H](N)C(=O)O; AEEA = NCCOCCOCC(=O)O; Aib = CC(C)(N)C(=O)O
What was measured:
GLP-1R = GLP-1R (UniProt P43220 24-463, limits assumed); assay: cell-based or functional assay
GIPR = molecular target: T1, GIPR (UniProt P48546 22-466, limits assumed); assay: cell-based or functional assay
T1 sequence (looked up): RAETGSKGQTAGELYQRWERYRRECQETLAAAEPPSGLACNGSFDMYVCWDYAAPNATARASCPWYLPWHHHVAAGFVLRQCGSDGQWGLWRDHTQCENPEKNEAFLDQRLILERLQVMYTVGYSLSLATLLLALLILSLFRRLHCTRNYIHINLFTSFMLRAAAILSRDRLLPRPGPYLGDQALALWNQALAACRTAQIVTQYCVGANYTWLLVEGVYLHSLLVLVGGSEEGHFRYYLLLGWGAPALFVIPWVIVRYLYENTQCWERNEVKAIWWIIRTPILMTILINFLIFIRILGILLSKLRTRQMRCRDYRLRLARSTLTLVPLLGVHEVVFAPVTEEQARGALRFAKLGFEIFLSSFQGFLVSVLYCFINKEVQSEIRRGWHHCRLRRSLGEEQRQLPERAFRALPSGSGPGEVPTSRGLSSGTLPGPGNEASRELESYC

**Q.** Tirzepatide (peptide) was tested. Which Half effective Concentration (EC50), cellular cAMP assay on GLP-1R-expressing cells (GLP-1R) did it give?
**A.** 6.8 nM

**Q.** What about the Half effective Concentration (EC50), cellular cAMP assay on GIPR-expressing cells (GIPR) of the same molecule?
**A.** 1.9 nM

B1: Compound 11 (peptide)
peptide: Y[Aib]EGTFTSDYSI[Nle]LDKIAQK([AEEA-Aib-γGlu-C20 diacid])AFVQWLIAGGPSSGAPPPS-NH2
modifications: N-terminus assumed
SMILES: CCCC[C@H](NC(=O)[C@@H](NC(=O)[C@H](CO)NC(=O)[C@H](Cc1ccc(O)cc1)NC(=O)[C@H](CC(=O)O)NC(=O)[C@H](CO)NC(=O)[C@@H](NC(=O)[C@H](Cc1ccccc1)NC(=O)[C@@H](NC(=O)CNC(=O)[C@H](CCC(=O)O)NC(=O)C(C)(C)NC(=O)[C@@H](N)Cc1ccc(O)cc1)[C@@H](C)O)[C@@H](C)O)[C@@H](C)CC)C(=O)N[C@@H](CC(C)C)C(=O)N[C@@H](CC(=O)O)C(=O)N[C@@H](CCCCN)C(=O)N[C@H](C(=O)N[C@@H](C)C(=O)N[C@@H](CCC(N)=O)C(=O)N[C@@H](CCCCNC(=O)COCCOCCNC(=O)C(C)(C)NC(=O)CC[C@H](NC(=O)CCCCCCCCCCCCCCCCCCC(=O)O)C(=O)O)C(=O)N[C@@H](C)C(=O)N[C@@H](Cc1ccccc1)C(=O)N[C@H](C(=O)N[C@@H](CCC(N)=O)C(=O)N[C@@H](Cc1c[nH]c2ccccc12)C(=O)N[C@@H](CC(C)C)C(=O)N[C@H](C(=O)N[C@@H](C)C(=O)NCC(=O)NCC(=O)N1CCC[C@H]1C(=O)N[C@@H](CO)C(=O)N[C@@H](CO)C(=O)NCC(=O)N[C@@H](C)C(=O)N1CCC[C@H]1C(=O)N1CCC[C@H]1C(=O)N1CCC[C@H]1C(=O)N[C@@H](CO)C(N)=O)[C@@H](C)CC)C(C)C)[C@@H](C)CC
**Q.** How did the “Half effective Concentration (EC50), cellular cAMP assay on GLP-1R-expressing cells” value (GLP-1R) turn out when B1 was run?
**A.** 0.0059 nM

**Q.** And the “Half effective Concentration (EC50), cellular cAMP assay on GIPR-expressing cells” value (GIPR)?
**A.** 0.0064 nM

B2: Compound 3 (peptide)
peptide: Y[Aib]EGTFTSDYSILLDKIAQK([AEEA-Aib-γGlu-C20 diacid])AFVQWLIAGGPSSGAPPPS-NH2
modifications: N-terminus assumed
SMILES: CC[C@H](C)[C@H](NC(=O)[C@H](CCCCN)NC(=O)[C@H](CC(=O)O)NC(=O)[C@H](CC(C)C)NC(=O)[C@H](CC(C)C)NC(=O)[C@@H](NC(=O)[C@H](CO)NC(=O)[C@H](Cc1ccc(O)cc1)NC(=O)[C@H](CC(=O)O)NC(=O)[C@H](CO)NC(=O)[C@@H](NC(=O)[C@H](Cc1ccccc1)NC(=O)[C@@H](NC(=O)CNC(=O)[C@H](CCC(=O)O)NC(=O)C(C)(C)NC(=O)[C@@H](N)Cc1ccc(O)cc1)[C@@H](C)O)[C@@H](C)O)[C@@H](C)CC)C(=O)N[C@@H](C)C(=O)N[C@@H](CCC(N)=O)C(=O)N[C@@H](CCCCNC(=O)COCCOCCNC(=O)C(C)(C)NC(=O)CC[C@H](NC(=O)CCCCCCCCCCCCCCCCCCC(=O)O)C(=O)O)C(=O)N[C@@H](C)C(=O)N[C@@H](Cc1ccccc1)C(=O)N[C@H](C(=O)N[C@@H](CCC(N)=O)C(=O)N[C@@H](Cc1c[nH]c2ccccc12)C(=O)N[C@@H](CC(C)C)C(=O)N[C@H](C(=O)N[C@@H](C)C(=O)NCC(=O)NCC(=O)N1CCC[C@H]1C(=O)N[C@@H](CO)C(=O)N[C@@H](CO)C(=O)NCC(=O)N[C@@H](C)C(=O)N1CCC[C@H]1C(=O)N1CCC[C@H]1C(=O)N1CCC[C@H]1C(=O)N[C@@H](CO)C(N)=O)[C@@H](C)CC)C(C)C
**Q.** How did the “Half effective Concentration (EC50), cellular cAMP assay on GLP-1R-expressing cells” value (GLP-1R) turn out when B2 was run?
**A.** 0.0327 nM

**Q.** What about the “Half effective Concentration (EC50), cellular cAMP assay on GIPR-expressing cells” value (GIPR) of the same molecule?
**A.** 0.0128 nM

B3: Compound 10 (peptide)
peptide: YXEGTFTSDYSIXLDKIAQKAFVQWLIAGGPSSGAPPPS
modifications: Aib at position 2; L-homoalanine (2-aminobutyric acid) at position 13; Lys 20 side chain (epsilon amino) acylated with Moiety A; C-terminal amide (Ser-NH2)
**Q.** With B3 as the molecule, how does the “Half effective Concentration (EC50), cellular cAMP assay on GLP-1R-expressing cells” value (GLP-1R) read?
**A.** 0.0036 nM

**Q.** What about the “Half effective Concentration (EC50), cellular cAMP assay on GIPR-expressing cells” value (GIPR) of the same molecule?
**A.** 0.0073 nM

B4: Compound 6 (peptide)
peptide: Y[Aib]EGTFTSDYSI[Nva]LDKIAQK([AEEA-AEEA-γGlu-C20 diacid])AFVQWLIAGGPSSGAPPPS-NH2
modifications: N-terminus assumed
SMILES: CCC[C@H](NC(=O)[C@@H](NC(=O)[C@H](CO)NC(=O)[C@H](Cc1ccc(O)cc1)NC(=O)[C@H](CC(=O)O)NC(=O)[C@H](CO)NC(=O)[C@@H](NC(=O)[C@H](Cc1ccccc1)NC(=O)[C@@H](NC(=O)CNC(=O)[C@H](CCC(=O)O)NC(=O)C(C)(C)NC(=O)[C@@H](N)Cc1ccc(O)cc1)[C@@H](C)O)[C@@H](C)O)[C@@H](C)CC)C(=O)N[C@@H](CC(C)C)C(=O)N[C@@H](CC(=O)O)C(=O)N[C@@H](CCCCN)C(=O)N[C@H](C(=O)N[C@@H](C)C(=O)N[C@@H](CCC(N)=O)C(=O)N[C@@H](CCCCNC(=O)COCCOCCNC(=O)COCCOCCNC(=O)CC[C@H](NC(=O)CCCCCCCCCCCCCCCCCCC(=O)O)C(=O)O)C(=O)N[C@@H](C)C(=O)N[C@@H](Cc1ccccc1)C(=O)N[C@H](C(=O)N[C@@H](CCC(N)=O)C(=O)N[C@@H](Cc1c[nH]c2ccccc12)C(=O)N[C@@H](CC(C)C)C(=O)N[C@H](C(=O)N[C@@H](C)C(=O)NCC(=O)NCC(=O)N1CCC[C@H]1C(=O)N[C@@H](CO)C(=O)N[C@@H](CO)C(=O)NCC(=O)N[C@@H](C)C(=O)N1CCC[C@H]1C(=O)N1CCC[C@H]1C(=O)N1CCC[C@H]1C(=O)N[C@@H](CO)C(N)=O)[C@@H](C)CC)C(C)C)[C@@H](C)CC
**Q.** How did the “Half effective Concentration (EC50), cellular cAMP assay on GLP-1R-expressing cells” value (GLP-1R) turn out when B4 was run?
**A.** 0.0196 nM

**Q.** And the “Half effective Concentration (EC50), cellular cAMP assay on GIPR-expressing cells” value (GIPR)?
**A.** 0.0177 nM

B5: Compound 1 (peptide)
peptide: Y[Aib]EGTFTSDYSI[Nva]LDKIAQK([AEEA-Aib-γGlu-C20 diacid])AFVQWLIAGGPSSGAPPPS-NH2
modifications: N-terminus assumed
SMILES: CCC[C@H](NC(=O)[C@@H](NC(=O)[C@H](CO)NC(=O)[C@H](Cc1ccc(O)cc1)NC(=O)[C@H](CC(=O)O)NC(=O)[C@H](CO)NC(=O)[C@@H](NC(=O)[C@H](Cc1ccccc1)NC(=O)[C@@H](NC(=O)CNC(=O)[C@H](CCC(=O)O)NC(=O)C(C)(C)NC(=O)[C@@H](N)Cc1ccc(O)cc1)[C@@H](C)O)[C@@H](C)O)[C@@H](C)CC)C(=O)N[C@@H](CC(C)C)C(=O)N[C@@H](CC(=O)O)C(=O)N[C@@H](CCCCN)C(=O)N[C@H](C(=O)N[C@@H](C)C(=O)N[C@@H](CCC(N)=O)C(=O)N[C@@H](CCCCNC(=O)COCCOCCNC(=O)C(C)(C)NC(=O)CC[C@H](NC(=O)CCCCCCCCCCCCCCCCCCC(=O)O)C(=O)O)C(=O)N[C@@H](C)C(=O)N[C@@H](Cc1ccccc1)C(=O)N[C@H](C(=O)N[C@@H](CCC(N)=O)C(=O)N[C@@H](Cc1c[nH]c2ccccc12)C(=O)N[C@@H](CC(C)C)C(=O)N[C@H](C(=O)N[C@@H](C)C(=O)NCC(=O)NCC(=O)N1CCC[C@H]1C(=O)N[C@@H](CO)C(=O)N[C@@H](CO)C(=O)NCC(=O)N[C@@H](C)C(=O)N1CCC[C@H]1C(=O)N1CCC[C@H]1C(=O)N1CCC[C@H]1C(=O)N[C@@H](CO)C(N)=O)[C@@H](C)CC)C(C)C)[C@@H](C)CC
**Q.** What does the source list for B5?
**A.** Half effective Concentration (EC50), cellular cAMP assay on GLP-1R-expressing cells (GLP-1R): 0.0124 nM; Half effective Concentration (EC50), cellular cAMP assay on GIPR-expressing cells (GIPR): 0.0276 nM
